The supplement of paper PMC10065799, “High-throughput profiling of sequence recognition by tyrosine kinases and SH2 domains using bacterial peptide display” (eLife, 2023)

How the values were obtained:
c-Src SH2 = test: SH2 binding enrichment of the phosphorylated peptide, bacterial display (enrichment ratio); higher = better substrate or ligand; peptides without Tyr show the background
Grb2 SH2 = Grb2 SH2 (UniProt P62993); test: as above
SHP2-C SH2 = test: as above
EPHB1 = EPHB1 (UniProt P54762); test: phosphorylation enrichment, bacterial display (enrichment ratio); higher = better substrate or ligand; peptides without Tyr show the background
EPHB2 = EPHB2 (UniProt P29323); test: as above
Hck = Hck (UniProt P08631); test: as above
Chain of Hck (P08631 whole entry, looked up): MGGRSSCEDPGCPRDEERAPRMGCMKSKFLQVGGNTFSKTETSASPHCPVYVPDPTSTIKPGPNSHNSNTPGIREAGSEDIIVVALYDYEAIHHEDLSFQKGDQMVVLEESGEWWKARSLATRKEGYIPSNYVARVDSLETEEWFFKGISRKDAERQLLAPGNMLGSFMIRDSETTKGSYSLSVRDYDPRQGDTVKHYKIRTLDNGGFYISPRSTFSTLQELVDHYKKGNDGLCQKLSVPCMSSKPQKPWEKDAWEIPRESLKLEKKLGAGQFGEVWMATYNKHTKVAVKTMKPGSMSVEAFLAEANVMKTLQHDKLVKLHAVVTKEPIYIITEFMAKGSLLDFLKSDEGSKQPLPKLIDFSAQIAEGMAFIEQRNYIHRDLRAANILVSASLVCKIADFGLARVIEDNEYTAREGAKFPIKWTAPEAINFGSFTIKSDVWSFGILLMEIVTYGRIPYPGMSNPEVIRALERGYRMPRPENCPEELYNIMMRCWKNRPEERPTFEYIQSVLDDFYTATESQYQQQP

Fyn = Fyn (UniProt P06241); test: as above
Chain of Fyn (P06241 whole entry, looked up): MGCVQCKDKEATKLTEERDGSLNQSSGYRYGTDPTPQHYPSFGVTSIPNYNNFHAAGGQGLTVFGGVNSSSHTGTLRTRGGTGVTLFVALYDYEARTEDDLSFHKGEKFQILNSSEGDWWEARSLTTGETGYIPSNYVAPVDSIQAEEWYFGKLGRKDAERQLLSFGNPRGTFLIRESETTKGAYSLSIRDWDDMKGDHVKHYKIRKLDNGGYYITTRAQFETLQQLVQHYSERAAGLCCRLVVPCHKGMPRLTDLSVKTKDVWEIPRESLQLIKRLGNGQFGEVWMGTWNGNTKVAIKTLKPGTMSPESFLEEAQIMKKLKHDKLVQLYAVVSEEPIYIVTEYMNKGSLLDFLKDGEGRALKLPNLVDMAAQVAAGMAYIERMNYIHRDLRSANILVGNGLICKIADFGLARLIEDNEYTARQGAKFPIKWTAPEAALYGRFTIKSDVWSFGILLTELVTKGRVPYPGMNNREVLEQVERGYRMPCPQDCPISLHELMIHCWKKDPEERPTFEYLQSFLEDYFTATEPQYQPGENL

c-Src = test: as above
Fes = Fes (UniProt P07332); test: as above
Chain of Fes (P07332 whole entry, looked up): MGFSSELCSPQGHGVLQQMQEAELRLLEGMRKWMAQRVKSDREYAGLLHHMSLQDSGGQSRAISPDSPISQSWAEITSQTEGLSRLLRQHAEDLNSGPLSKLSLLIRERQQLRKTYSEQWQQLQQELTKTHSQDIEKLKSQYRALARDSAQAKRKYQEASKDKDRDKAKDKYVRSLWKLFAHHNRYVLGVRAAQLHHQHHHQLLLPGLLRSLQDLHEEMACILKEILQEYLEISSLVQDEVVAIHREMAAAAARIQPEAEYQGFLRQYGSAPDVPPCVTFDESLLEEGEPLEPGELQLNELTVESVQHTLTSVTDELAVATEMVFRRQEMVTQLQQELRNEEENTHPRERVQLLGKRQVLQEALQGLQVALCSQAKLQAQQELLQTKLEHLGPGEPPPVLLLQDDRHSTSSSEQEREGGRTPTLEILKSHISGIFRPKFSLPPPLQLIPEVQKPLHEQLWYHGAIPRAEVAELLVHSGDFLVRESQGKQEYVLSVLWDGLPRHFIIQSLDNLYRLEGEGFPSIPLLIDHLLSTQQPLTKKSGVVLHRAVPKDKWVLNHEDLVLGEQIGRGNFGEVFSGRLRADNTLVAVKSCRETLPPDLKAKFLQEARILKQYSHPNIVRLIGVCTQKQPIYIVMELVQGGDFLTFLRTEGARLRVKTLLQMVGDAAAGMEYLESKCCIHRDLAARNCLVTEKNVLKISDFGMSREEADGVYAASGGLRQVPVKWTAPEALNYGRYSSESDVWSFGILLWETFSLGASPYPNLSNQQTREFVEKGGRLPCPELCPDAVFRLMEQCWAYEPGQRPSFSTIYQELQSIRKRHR

c-Abl (mouse) = test: as above
Jak2 = Jak2 (UniProt O60674); test: as above
FGFR1 = FGFR1 (UniProt P11362); test: as above
Chain of FGFR1 (P11362 whole entry, looked up): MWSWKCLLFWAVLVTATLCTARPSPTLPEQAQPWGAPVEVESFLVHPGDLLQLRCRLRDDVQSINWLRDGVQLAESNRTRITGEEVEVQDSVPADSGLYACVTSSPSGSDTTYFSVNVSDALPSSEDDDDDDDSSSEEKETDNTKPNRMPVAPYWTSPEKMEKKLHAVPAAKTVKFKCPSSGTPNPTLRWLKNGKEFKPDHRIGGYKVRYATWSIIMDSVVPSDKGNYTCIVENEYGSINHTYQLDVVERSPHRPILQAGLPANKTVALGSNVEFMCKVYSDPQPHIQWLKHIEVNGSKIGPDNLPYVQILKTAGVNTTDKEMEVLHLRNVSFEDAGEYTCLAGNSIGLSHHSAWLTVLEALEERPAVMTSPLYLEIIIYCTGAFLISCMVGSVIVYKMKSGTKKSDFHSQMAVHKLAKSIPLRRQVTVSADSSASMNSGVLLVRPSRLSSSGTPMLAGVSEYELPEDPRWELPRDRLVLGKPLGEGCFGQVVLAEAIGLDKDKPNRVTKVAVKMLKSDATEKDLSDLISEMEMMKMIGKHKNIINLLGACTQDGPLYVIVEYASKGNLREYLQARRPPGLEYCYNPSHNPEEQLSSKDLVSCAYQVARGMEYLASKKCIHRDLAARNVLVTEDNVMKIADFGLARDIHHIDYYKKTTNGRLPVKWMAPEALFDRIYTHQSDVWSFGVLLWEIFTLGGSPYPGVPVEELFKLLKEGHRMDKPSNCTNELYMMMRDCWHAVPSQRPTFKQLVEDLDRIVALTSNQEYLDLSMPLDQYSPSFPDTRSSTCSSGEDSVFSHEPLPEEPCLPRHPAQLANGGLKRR

MERTK = MERTK (UniProt Q12866); test: as above
Chain of MERTK (Q12866 whole entry, looked up): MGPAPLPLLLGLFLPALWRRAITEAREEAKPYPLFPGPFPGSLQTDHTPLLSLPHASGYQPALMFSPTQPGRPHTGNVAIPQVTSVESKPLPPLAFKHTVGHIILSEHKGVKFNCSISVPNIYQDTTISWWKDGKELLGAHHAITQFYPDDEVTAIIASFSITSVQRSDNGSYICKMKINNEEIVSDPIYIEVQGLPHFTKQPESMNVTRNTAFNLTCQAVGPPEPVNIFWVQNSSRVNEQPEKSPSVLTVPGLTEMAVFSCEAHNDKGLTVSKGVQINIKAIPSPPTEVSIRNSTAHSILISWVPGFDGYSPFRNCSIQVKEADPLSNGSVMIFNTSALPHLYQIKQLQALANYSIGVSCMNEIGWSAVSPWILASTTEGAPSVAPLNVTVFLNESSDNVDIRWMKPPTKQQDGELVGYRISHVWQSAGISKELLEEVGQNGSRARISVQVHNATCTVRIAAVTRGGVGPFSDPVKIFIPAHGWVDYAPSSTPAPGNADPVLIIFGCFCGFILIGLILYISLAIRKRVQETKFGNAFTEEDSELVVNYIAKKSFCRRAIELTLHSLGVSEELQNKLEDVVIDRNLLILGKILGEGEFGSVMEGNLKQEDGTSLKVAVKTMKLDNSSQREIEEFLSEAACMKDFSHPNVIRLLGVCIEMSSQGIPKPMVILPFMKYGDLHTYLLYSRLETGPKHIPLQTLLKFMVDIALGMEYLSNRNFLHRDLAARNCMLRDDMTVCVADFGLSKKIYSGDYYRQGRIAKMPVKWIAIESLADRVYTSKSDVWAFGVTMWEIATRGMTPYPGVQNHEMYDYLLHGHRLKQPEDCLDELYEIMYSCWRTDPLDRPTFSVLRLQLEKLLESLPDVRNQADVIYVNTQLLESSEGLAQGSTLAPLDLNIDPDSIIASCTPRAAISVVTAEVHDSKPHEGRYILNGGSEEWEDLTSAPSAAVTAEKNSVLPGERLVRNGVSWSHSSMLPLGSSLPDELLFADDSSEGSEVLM

FGFR3 = FGFR3 (UniProt P22607); test: as above
Chain of FGFR3 (P22607 whole entry, looked up): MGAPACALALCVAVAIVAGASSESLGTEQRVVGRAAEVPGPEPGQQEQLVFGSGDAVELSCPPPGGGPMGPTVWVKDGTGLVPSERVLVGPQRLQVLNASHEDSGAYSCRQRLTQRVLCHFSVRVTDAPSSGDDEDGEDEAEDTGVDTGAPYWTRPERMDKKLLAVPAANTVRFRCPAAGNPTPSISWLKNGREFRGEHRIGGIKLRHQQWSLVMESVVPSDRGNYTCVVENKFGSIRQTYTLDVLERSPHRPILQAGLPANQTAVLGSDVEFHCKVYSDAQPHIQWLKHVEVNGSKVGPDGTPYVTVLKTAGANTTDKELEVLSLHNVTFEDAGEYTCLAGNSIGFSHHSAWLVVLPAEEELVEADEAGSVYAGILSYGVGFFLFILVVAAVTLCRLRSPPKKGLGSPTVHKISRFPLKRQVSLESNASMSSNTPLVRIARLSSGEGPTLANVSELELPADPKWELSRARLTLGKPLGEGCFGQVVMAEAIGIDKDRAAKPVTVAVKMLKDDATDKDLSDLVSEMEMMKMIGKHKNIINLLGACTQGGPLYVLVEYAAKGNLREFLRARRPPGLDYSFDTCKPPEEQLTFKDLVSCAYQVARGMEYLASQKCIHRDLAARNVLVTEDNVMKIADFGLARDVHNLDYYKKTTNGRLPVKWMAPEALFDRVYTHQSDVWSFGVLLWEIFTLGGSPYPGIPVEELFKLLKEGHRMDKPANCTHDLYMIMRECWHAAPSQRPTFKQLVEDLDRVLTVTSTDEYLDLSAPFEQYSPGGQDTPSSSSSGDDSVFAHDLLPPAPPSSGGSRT

Fer (mouse) = test: as above
AncSZ = test: as above
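For SH2 binding enrichment of the phosphorylated peptide, bacterial display in this document: peptide library displayed on the E. coli surface as eCPX fusions, selected cells deep-sequenced, score is each peptide's frequency after selection divided by its frequency in the input.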
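For phosphorylation enrichment, bacterial display in this document: 11-residue human phosphosite peptides and single-mutation variants displayed on the E. coli surface, counted by deep sequencing, each peptide's frequency after selection divided by its frequency in the unselected input library; frequency after pTyr selection over input frequency; kinase dosed for 20-30% of maximal phosphorylation in three min.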

Chain of Grb2 SH2 (P62993 whole entry, looked up): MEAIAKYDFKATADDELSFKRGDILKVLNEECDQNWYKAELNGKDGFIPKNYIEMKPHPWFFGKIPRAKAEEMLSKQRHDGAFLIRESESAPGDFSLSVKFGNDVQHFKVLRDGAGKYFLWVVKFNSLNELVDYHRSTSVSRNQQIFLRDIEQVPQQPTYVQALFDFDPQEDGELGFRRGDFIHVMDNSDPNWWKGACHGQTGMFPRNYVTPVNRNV

Sequence	SH2 binding enrichment (c-Src SH2)	SH2 binding enrichment (Grb2 SH2)	SH2 binding enrichment (SHP2-C SH2)	phosphorylation enrichment (EPHB1)	phosphorylation enrichment (EPHB2)	phosphorylation enrichment (Hck)	phosphorylation enrichment (Fyn)	phosphorylation enrichment (c-Src)	phosphorylation enrichment (Fes)	phosphorylation enrichment (c-Abl (mouse))	phosphorylation enrichment (Jak2)	phosphorylation enrichment (FGFR1)	phosphorylation enrichment (MERTK)	phosphorylation enrichment (FGFR3)	phosphorylation enrichment (Fer (mouse))	phosphorylation enrichment (AncSZ)
RNYDTYTAGLS [RHBDD1_Y264]	0.621	0.707	0.572	7.39	14.6	5.02	1.49	1.39	0.901	0.729	0.677	0.602	0.841	0.438	0.707	0.955
AIDVGYRLIDC [AKR1B1_Y40_H42L]	2.02	0.993	0.7	0.456	0.45	0.417	0.428	0.512	1.2	0.861	0.792	0.514	0.39	0.594	0.424	0.874
RSACTYLAPHL [PLK3_Y615_S618P]	0.562	0.876	0.648	1.88	1.25	1.45	1.1	2.74	1.02	6.67	1.59	0.691	1.02	0.71	0.589	2.67
TGEDWYVLVRV [SF3B3_Y904_G908R]	0.377	0.626	0.491	0.893	0.64	0.561	0.433	0.385	1.42	0.954	1.21	0.405	0.364	0.827	0.524	1.37
IHHIDYFKKTT [FGFR1_Y653_YF]	0.526	0.585	0.526	0.36	0.385	0.52	0.561	0.545	0.822	0.501	0.613	0.481	0.444	0.642	0.398	0.718
FTRNYYVWAVL [CYBA_Y88_R90W]	0.581	1.04	1.11	3.79	1.55	0.75	0.858	0.506	1.7	12	1.84	6.92	3.54	5.58	1.42	1.6
LQFKNYQQLFD [MAN2A1_Y442]	1.58	0.76	0.784	0.641	0.532	0.527	0.379	0.377	0.985	0.636	0.882	0.453	0.358	0.679	0.391	0.944
FSGLAYTMERS [GLUD1_Y512_H507Y_YF]	0.5	0.856	0.838	0.492	0.465	0.486	0.544	0.935	0.858	0.613	0.7	0.455	0.364	0.63	0.361	0.822
RNGDRYFKGIV [DCX_Y64]	0.548	0.995	0.714	0.335	0.619	0.419	0.665	0.455	0.632	0.664	0.626	0.444	0.433	0.483	0.549	0.709
VDESLYKTHPQ [HK1_Y417_G414E]	0.458	0.76	0.624	0.513	0.706	0.656	0.592	0.541	0.989	0.9	0.811	0.644	0.553	0.699	0.572	0.904
TGNGFYFRVFS [MYBPC3_Y1136_I1131T_YF]	0.363	0.705	0.62	0.65	0.517	0.456	0.393	0.374	1.33	0.929	1.32	0.433	0.36	0.763	0.543	1.1
TRYDEYLEVTK [MAP1A_Y2217_H2214Y]	1.02	0.777	0.506	0.98	0.884	0.539	0.519	0.538	1.25	0.909	1.16	0.901	0.425	0.872	0.592	1.31
AQADIYKANFQ [IKBKG_Y308_D311N]	0.504	0.873	0.729	0.361	0.408	0.659	0.536	0.799	0.81	0.761	0.829	0.389	0.461	0.573	0.461	0.586
VSNFNYFYHRE [KCNA1_Y413]	0.795	1.07	1.9	0.614	0.549	0.501	0.433	0.512	0.999	0.874	0.943	1.66	0.47	1.86	0.404	1.01
RPSELYYSKIG [SMG1_Y2253]	4.1	0.758	1.1	1.79	0.88	11.3	1.69	5.63	1.23	1.01	1.06	3.1	20.1	1.84	1.59	1.08
ETDSEYVKLAK [C7orf57_Y70]	0.479	0.816	0.676	0.441	0.492	0.425	0.433	0.391	0.817	0.588	0.69	0.377	0.398	0.478	0.335	0.934
KWRGQYDVANK [BTK_Y425_I429N]	1.2	1.08	0.957	0.381	0.396	0.445	0.359	0.376	0.705	0.594	0.6	0.439	0.387	0.57	0.446	0.533

Sequence	SH2 binding enrichment (c-Src SH2)	SH2 binding enrichment (Grb2 SH2)	SH2 binding enrichment (SHP2-C SH2)	phosphorylation enrichment (EPHB1)	phosphorylation enrichment (EPHB2)	phosphorylation enrichment (Hck)	phosphorylation enrichment (Fyn)	phosphorylation enrichment (c-Src)	phosphorylation enrichment (Fes)	phosphorylation enrichment (c-Abl (mouse))	phosphorylation enrichment (Jak2)	phosphorylation enrichment (FGFR1)	phosphorylation enrichment (MERTK)	phosphorylation enrichment (FGFR3)	phosphorylation enrichment (Fer (mouse))	phosphorylation enrichment (AncSZ)
RLRKFYLGKFL [KLB_Y906_YF]	0.444	0.679	0.549	0.393	0.462	0.654	0.689	0.707	0.624	0.719	0.608	0.669	0.645	0.64	0.468	0.631
PIFLFYLMDLS [ITGB2_Y131_D128Y_YF]	0.567	0.61	0.874	2.51	1.01	0.95	0.613	1.12	3.28	1.91	3.98	0.702	0.914	1.31	1.24	2.78
ATQDDYVLEVR [PTPRZ1_Y2179]	0.505	0.856	0.719	0.632	0.62	0.56	0.626	0.601	1.23	0.766	1.08	0.552	0.492	0.701	0.497	1.45
HEHVGYTTLNR [CHN1_Y148_Y143H]	3.47	0.88	61.4	0.498	0.429	0.57	0.489	0.618	0.667	0.936	0.669	0.573	0.44	0.744	0.351	0.63
MICSAYALGGL [CPS1_Y590_R587C]	0.552	0.764	0.506	0.623	0.601	0.72	0.659	0.779	1.05	0.811	0.983	0.635	0.571	0.844	0.551	0.961
PADCRYFAFPQ [GAMT_Y222_YF]	1.26	0.818	1.18	1.29	0.959	0.733	0.817	1.43	0.99	0.752	2.66	2.35	5.65	1.78	0.636	1.35
GITVAYTIPKK [UBA5_Y372]	0.835	0.71	1.26	0.441	0.331	0.317	0.475	0.396	0.739	0.702	0.669	0.337	0.528	0.534	0.384	0.763
EHVMPYAANKN [GRIN2A_Y1431]	0.484	0.792	0.747	0.392	0.302	0.358	0.313	0.375	0.463	0.374	0.56	0.361	0.322	0.344	0.253	0.53
PGRRFYVVACD [RNASE3_Y134]	0.849	1.05	0.569	0.536	1.19	0.733	0.389	2.16	1.65	1.24	2.05	0.654	1.22	0.916	0.52	1.43
AESPEYVHMYT [FAM111A_Y511]	0.693	0.768	0.586	0.486	0.491	0.469	0.423	0.531	1.01	0.825	0.962	1.92	0.413	1.26	0.467	1.34
NNKKDYYDMYE [SLC26A3_Y526_K521N]	1.57	0.753	0.54	2.03	1.52	0.728	0.792	0.591	1.04	0.537	0.735	8.57	0.483	6.01	0.544	1.47
VQQVIYATGAL [MYH7_Y422]	0.413	0.798	0.727	0.96	0.986	7.57	6.98	5.97	1	25.3	1.38	0.488	3.08	0.798	0.71	0.932
ELANYYKLHHI [AK7_Y391]	0.474	0.705	0.941	13.7	12.3	0.743	0.566	0.762	0.591	0.565	6.75	6.91	3.36	4.77	0.629	0.647
VLALWYFFLTH [ZDHHC23_Y127_YF]	1.06	1.28	1.16	0.963	0.676	0.682	0.614	0.602	1.76	1.01	2.27	2.08	0.882	1.76	0.644	1.42
LADKPYTFEYY [FXN_Y118_D122Y]	1.28	1.19	0.899	0.782	0.719	0.707	1.77	2.68	1.08	0.802	1.25	1.08	0.52	0.969	0.833	1
RIGRKCKKVRF [F8_Y442_Y442C]	0.433	0.638	0.428	0.567	0.556	0.52	0.55	0.794	0.595	0.524	0.654	1.67	0.549	0.572	0.363	0.608
